Results on 11 molecules are retold here after patent CN108503708A (BEIJING WISDOMAB BIOTECHNOLOGY CO LTD; GENRIX SHANGHAI …, dated 2018).

The labels stand for the following.
B1: hS4D12-IgG4 (humanized S4D12) (antibody, V domains shown)
VH: QVQLVQSGAEVKKPGASVKVSCKASGYTFTNYWMHWVRQRPGQGLEWIGVIAPSDNYTNYNQKFQGRVTMTVDTSTSTVYMELSSLRSEDTAVYYCTKGGKYSMDYWGQGTTVTVSS
VL: DIVMTQTPLSLPVTPGEPASISCRSSQSIVHSNGNTYLEWYLQKPGQSPQLLIYKVSNRFSGVPDRFSGSGSGTDFTLKISRVEAEDVGVYYCFQGSHVPFTFGQGTKLEIK
B2: H11E5+L25B8 (affinity-matured variant of hS2C3) (antibody, V domains shown)
VH: QVQLVQSGAEVKKPGASVKVSCKASGYTFTDYYMHWVRQAPGQRLEWMGWIYPSSGNTKYAQKFKDRVTMTRDTSTSTVYMELSSLRSEDTAVYYCARREEDYFDYWGQGTLVTVSS
VL: DIVMTQSPDSLAVSLGERATINCKSSQSLLYSSNKKNYLTWYQQKPGQPPKLLIYWASTRESGVPDRFSGSGSGTDFTLTISSLQAEDVAVYYCQQFYAYPISFGQGTKLEIK
notes: Humanized monoclonal antibody
B3: H10C7+L25B8 (affinity-matured variant of hS2C3) (antibody, V domains shown)
VH: B2 VH with S54G, K59R, A61S
VL: B2 VL
notes: Humanized monoclonal antibody
B4: hS2C3-IgG4 (humanized S2C3) (antibody, V domains shown)
VH: B2 VH with Y52N, K65Q
VL: B2 VL with S32P, Q96E, F97Y, I102L
B5: S2H2-IgG4 (mouse-human chimeric antibody, human IgG4-kappa) (antibody, V domains shown)
VH: QVQLQQPGAEVVKPGASVKMSCKASGYTLSSYWMHWVKQRPGQGLEWIGTIDRSDSYISYNQKFKGKATLTVDTSSGTVYMQLNSLTSEDSAVYYCTRGGPYGSKMMDNWGQGTSVTVSS
VL: DIQMNQSPSSLSASLGDTITITCHASQNINVWLSWYQQKPGNIPKLLIYKASNLHTGVPSRFSGSGSGTGFTLTISSLQPEDIATYYCQQGQSYPLTFGTGTKLELKR
notes: also called 人-鼠嵌合单抗S2H2
B6: S2C3-IgG4 (mouse-human chimeric antibody, human IgG4-kappa) (antibody, V domains shown)
VH: QIQLQQSGPELVKPGASVKISCKASGYTFTDYYMHWVKQRPGQGLEWIGWINPSSGNTKYAQKFQDKATLTVATSSSTAYMQLSSLTSEDTAVYFCARREEDYFDYWGQGTLVTVSS
VL: DIVMSQSPSSLAVSVGEKVTMSCKSSQSLLYPSNKKNYLTWYQQKPGQSPKLLIYWASTRESGVPDRFTGSGSGTDFTLTISSVKAEDLAVYYCQEYYAYPLSFGAGTKLEIKR
notes: also called 人-鼠嵌合单抗S2C3
B7: S4D12-IgG4 (mouse-human chimeric antibody, human IgG4-kappa) (antibody, V domains shown)
VH: QVQLQQPGAELVKPGASVKMSCKASGYTFTNYWMHWVKQRPGQGLEWIGVIAPSDNYTNYNQKFQGKATLTVDTSSSTAYMQLSSLTSEDSAVYYCTKGGKYSMDYWGQGTSVTVSS
VL: DVLMTQTPLSLPVSLGDQASISCRSSQSIVHSNGNTYLEWYLQKPGQSPKLLIYKVSNRFSGVPDRFSGSGSGTDFTLKISRVEAEDLGVYYCFQGSHVPFTFGSGTKLEIKR
notes: also called 人-鼠嵌合单抗S4D12
B8: Hu5F9-G4 (humanized anti-CD47 monoclonal antibody) (antibody, human IgG4, V domains shown)
VH: QVQLVQSGAEVKKPGASVKVSCKASGYTFTNYNMHWVRQAPGQRLEWMGTIYPGNDDTSYNQKFKDRVTITADTSASTAYMELSSLRSEDTAVYYCARGGYRAMDYWGQGTLVTVSS
VL: B1 VL with T7S, H31Y, E39G, F101Y
notes: Prepared after US 9017675B2; labelled IgG4; also called Hu5F9-IgG4; hu5F9-IgG4
B9: S2C3 (mouse scFv clone displayed on phage) (scFv)
scFv: QIQLQQSGPELVKPGASVKISCKASGYTFTDYYMHWVKQRPGQGLEWIGWINPSSGNTKYAQKFQDKATLTVATSSSTAYMQLSSLTSEDTAVYFCARREEDYFDYWGQGTLVTVSSGGGGSGGGGSGGGGSDIVMSQSPSSLAVSVGEKVTMSCKSSQSLLYPSNKKNYLTWYQQKPGQSPKLLIYWASTRESGVPDRFTGSGSGTDFTLTISSVKAEDLAVYYCQEYYAYPLSFGAGTKLEIK
notes: also called 鼠单链抗体S2C3; 鼠单抗S2C3
B10: S4D12 (mouse scFv clone displayed on phage) (scFv)
scFv: QVQLQQPGAELVKPGASVKMSCKASGYTFTNYWMHWVKQRPGQGLEWIGVIAPSDNYTNYNQKFQGKATLTVDTSSSTAYMQLSSLTSEDSAVYYCTKGGKYSMDYWGQGTSVTVSSGGGGSGGGGSGGGGSDVLMTQTPLSLPVSLGDQASISCRSSQSIVHSNGNTYLEWYLQKPGQSPKLLIYKVSNRFSGVPDRFSGSGSGTDFTLKISRVEAEDLGVYYCFQGSHVPFTFGSGTKLEIK
notes: also called 鼠单链抗体S4D12; 鼠单抗S4D12
B11: S2H2 (mouse scFv clone displayed on phage) (scFv)
scFv: QVQLQQPGAEVVKPGASVKMSCKASGYTLSSYWMHWVKQRPGQGLEWIGTIDRSDSYISYNQKFKGKATLTVDTSSGTVYMQLNSLTSEDSAVYYCTRGGPYGSKMMDNWGQGTSVTVSSGGGGSGGGGSGGGGSDIQMNQSPSSLSASLGDTITITCHASQNINVWLSWYQQKPGNIPKLLIYKASNLHTGVPSRFSGSGSGTGFTLTISSLQPEDIATYYCQQGQSYPLTFGTGTKLELK
notes: also called 鼠单链抗体S2H2; 鼠单抗S2H2

Positions count from the first letter of the chain named.

One may read the IC50 as the midpoint of a concentration-inhibition curve. Low values mean greater potency, high ones weaker potency. One may read the Kd as the equilibrium constant for the complex coming apart. The koff is the rate constant with which the complex falls apart. As a reminder, the kon is the rate constant with which the complex forms.

One assay has as its target T1, hCD47-mFc (human CD47 extracellular region D1 fused to mouse IgG2a Fc) (human (homo sapiens)).
T1 construct: no linker is stated
Description: competition ELISA by the method of Example 3 (hCD47-mFc coated, hCD172a-D1M1-His as competitor).
Molecule B1 displayed an IC50 of less than 5 nM.

Turning to B2, the half-inhibitory concentration (IC50) is less than 5 nM.

For B3, the half-maximal inhibitory concentration (IC50) is less than 5 nM.

On to B4, for which the IC50 was less than 5 nM.

The target in a further assay is T2, huCD47-D1-his (recombinant human CD47 extracellular region D1 with C-terminal His tag) (human (homo sapiens), UniProt Q08722 19-141).
T2 construct: Expressed in HEK293 cells; analyte in the Biacore measurements and antigen of the phage panning; also called huCD47-his; hCD47; not shown: His tag added at the C-terminus
Kind of assay: SPR Biacore X100, antibody captured via anti-human Fc on CM5, huCD47-D1-his as analyte, 25 C. Background: SPR reads the build-up and loss of mass on a sensor chip optically.
For B5, the dissociation constant (Kd) is 9.71 nM, the off-rate constant (koff) is 0.00696 s⁻¹ and the on-rate constant (kon) amounted to 717000 M⁻¹ s⁻¹.

As to B6, the Kd worked out at 25.1 nM, the koff was determined as 0.0222 s⁻¹ and the kon turned out to be 886000 M⁻¹ s⁻¹.

For B7, the Kd turned out to be 10.1 nM, the koff was determined as 0.0142 s⁻¹ and the kon amounted to 1.41e+06 M⁻¹ s⁻¹.

The next assay addresses T1, hCD47-mFc (human CD47 extracellular …). Description: competition ELISA: hCD47-mFc coated, fixed hCD172a-D1M1-His as competitor, antibody titrated.
In the case of B5, the IC50 fell in the range of 2 to 5 nM.

B6: the IC50 lay in the range of 2 to 5 nM.

A further assay addresses T2, huCD47-D1-his (recombinant human CD47 …). Description: SPR BIAcore, by the method of Example 3 (antibody captured, huCD47-D1-his analyte).
With B2, the Kd was determined as 0.807 nM, the koff is 0.00096 s⁻¹ and the association rate constant (kon) came out at 1.19e+06 M⁻¹ s⁻¹.

For the molecule B3, the equilibrium dissociation constant (Kd) stood at 1.11 nM, the koff was determined as 0.00115 s⁻¹ and the on-rate (kon) was found to be 1.03e+06 M⁻¹ s⁻¹.

Regarding B4, the Kd is 9.55 nM, the off-rate constant (koff) is 0.0103 s⁻¹ and the kon was found to be 1.08e+06 M⁻¹ s⁻¹.

A further assay has the same target. Described as above. The source holds these as a separate data set.
Regarding B1, the Kd amounted to 9.6 nM, the koff turned out to be 0.0118 s⁻¹ and the association rate constant (kon) turned out to be 1.22e+06 M⁻¹ s⁻¹.

As for B4, the Kd was determined as 10.1 nM, the off-rate (koff) stood at 0.011 s⁻¹ and the kon was 1.09e+06 M⁻¹ s⁻¹.

As for B6, the dissociation constant (Kd) was determined as 18.5 nM, the off-rate constant (koff) amounted to 0.0205 s⁻¹ and the kon worked out at 1.11e+06 M⁻¹ s⁻¹.

In the case of B7, the equilibrium dissociation constant (Kd) stood at 8.56 nM, the koff worked out at 0.011 s⁻¹ and the kon came out at 1.28e+06 M⁻¹ s⁻¹.

The next assay shares this target. Kind of assay: SPR BIAcore, against hS2C3 as reference.
As for B2, the “fold improvement of affinity over hS2C3” value amounted to 10 fold.

A further assay concerns the target T1, hCD47-mFc (human CD47 extracellular …). Kind of assay: competition ELISA by the method of Example 3 (hCD47-mFc coated, hCD172a-D1M1-His as competitor). This is another data set of the same source. Background: ELISA stands for enzyme-linked immunosorbent assay.
In turn, B2 came in with an IC50 of 4.13 nM.

Molecule B3 showed a 50% inhibitory concentration (IC50) of 4.51 nM.

Take B4: the 50% inhibitory concentration (IC50) was found to be 4.13 nM.

A further assay has the same target. The description is as above. This is another data set of the same source.
As for B8, the IC50 stood at 4.16 nM.

Molecule B1 yielded an IC50 of 2.68 nM.

As for B4, the IC50 turned out to be 3.36 nM.

A further assay shares this target. Kind of assay: competition ELISA: hCD47-mFc coated, fixed hCD172a-D1M1-His as competitor, antibody titrated. This is another data set of the same source.
The molecule B8 displayed a half-inhibitory concentration (IC50) of 9.61 nM.

In turn, B5 displayed a half-maximal inhibitory concentration (IC50) of 2.08 nM.

In the case of B6, the IC50 was 5.19 nM.

B7 displayed an IC50 of 3.89 nM.

The next assay has as its target T2, huCD47-D1-his (recombinant human CD47 …). Kind of assay: solid-phase phage panning on huCD47-D1-his, three rounds.
Consider B9, for which the binding result is on record as “binds”.

Regarding B10, the binding result was “binds”.

For B11, the binding result is “binds”.
